Tests used:
Experiment in all cases: EMSA
[1] = target: MutSbeta (MSH2-MSH3) (Homo sapiens, UniProt P43246;P20585 1-934;1-1137)
[2] = target: MutLgamma (MLH1-MLH3) (Homo sapiens, UniProt P40692;Q9UHC1 1-756;1-1453)
[3] = target: MutLbeta (MLH1-PMS1) (Homo sapiens, UniProt P40692;P54277 1-756;1-932)

Measured: binding result

Chain of MutLgamma (MLH1-MLH3) (P40692 whole entry, chain 1 of 2): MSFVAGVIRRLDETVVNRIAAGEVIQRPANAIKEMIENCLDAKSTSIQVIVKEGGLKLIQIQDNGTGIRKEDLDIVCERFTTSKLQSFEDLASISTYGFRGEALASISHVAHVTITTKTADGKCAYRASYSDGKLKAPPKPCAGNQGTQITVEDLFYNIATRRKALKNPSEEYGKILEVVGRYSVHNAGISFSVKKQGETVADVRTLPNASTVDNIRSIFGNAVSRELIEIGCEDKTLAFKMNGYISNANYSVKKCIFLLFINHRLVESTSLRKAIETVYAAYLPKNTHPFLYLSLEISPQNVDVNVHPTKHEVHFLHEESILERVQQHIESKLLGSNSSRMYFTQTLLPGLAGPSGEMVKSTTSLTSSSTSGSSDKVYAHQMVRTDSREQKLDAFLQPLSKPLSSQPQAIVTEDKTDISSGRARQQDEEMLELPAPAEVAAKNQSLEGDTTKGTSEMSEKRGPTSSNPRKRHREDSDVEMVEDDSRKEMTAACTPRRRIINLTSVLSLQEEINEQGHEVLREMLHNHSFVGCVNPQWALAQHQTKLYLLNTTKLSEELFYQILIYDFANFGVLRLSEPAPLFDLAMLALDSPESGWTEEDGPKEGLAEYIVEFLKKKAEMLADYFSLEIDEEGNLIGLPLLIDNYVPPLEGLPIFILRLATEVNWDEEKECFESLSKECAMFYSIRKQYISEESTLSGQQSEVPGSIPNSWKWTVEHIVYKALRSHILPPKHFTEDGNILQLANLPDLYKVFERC
Chain of MutLgamma (MLH1-MLH3) (Q9UHC1 whole entry, chain 2 of 2): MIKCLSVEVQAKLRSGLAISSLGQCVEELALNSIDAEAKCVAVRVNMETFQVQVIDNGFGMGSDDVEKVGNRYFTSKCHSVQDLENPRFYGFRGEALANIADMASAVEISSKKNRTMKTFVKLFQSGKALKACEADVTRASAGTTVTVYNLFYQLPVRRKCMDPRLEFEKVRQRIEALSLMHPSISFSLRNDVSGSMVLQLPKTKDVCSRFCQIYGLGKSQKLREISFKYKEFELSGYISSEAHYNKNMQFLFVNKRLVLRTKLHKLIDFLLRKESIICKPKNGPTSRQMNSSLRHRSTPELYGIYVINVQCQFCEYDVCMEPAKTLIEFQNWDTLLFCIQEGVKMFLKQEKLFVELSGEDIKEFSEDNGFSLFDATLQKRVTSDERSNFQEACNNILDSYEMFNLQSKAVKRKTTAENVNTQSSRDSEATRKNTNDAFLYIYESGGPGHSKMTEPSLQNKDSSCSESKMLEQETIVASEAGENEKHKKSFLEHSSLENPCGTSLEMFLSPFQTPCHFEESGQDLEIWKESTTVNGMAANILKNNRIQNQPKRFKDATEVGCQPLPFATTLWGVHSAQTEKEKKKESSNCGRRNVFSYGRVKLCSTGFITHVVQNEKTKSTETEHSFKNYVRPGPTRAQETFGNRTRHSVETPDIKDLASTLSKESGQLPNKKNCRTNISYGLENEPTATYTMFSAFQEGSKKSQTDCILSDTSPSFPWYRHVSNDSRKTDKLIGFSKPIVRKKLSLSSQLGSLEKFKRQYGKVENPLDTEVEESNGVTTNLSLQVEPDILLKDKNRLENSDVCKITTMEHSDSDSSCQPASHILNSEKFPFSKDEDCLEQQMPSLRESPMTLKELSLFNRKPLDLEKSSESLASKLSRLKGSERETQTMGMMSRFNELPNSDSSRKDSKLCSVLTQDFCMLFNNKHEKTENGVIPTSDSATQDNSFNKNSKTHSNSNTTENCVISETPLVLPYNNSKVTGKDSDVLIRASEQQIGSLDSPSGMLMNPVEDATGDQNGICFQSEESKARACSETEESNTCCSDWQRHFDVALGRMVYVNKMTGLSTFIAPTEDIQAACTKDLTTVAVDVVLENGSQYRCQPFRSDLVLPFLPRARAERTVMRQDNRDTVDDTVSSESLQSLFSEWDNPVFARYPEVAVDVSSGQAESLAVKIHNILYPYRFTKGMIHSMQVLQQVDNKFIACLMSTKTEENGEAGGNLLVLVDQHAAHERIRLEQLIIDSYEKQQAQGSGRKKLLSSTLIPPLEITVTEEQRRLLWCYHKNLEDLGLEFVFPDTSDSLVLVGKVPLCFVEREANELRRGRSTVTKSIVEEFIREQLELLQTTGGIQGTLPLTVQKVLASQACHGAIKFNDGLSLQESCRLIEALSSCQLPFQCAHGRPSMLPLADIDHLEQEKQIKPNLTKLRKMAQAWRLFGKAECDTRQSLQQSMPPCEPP
Chain of MutLbeta (MLH1-PMS1) (P40692 whole entry, chain 1 of 2): as the sequence (P40692 whole entry, chain 1 of 2) above
Chain of MutLbeta (MLH1-PMS1) (P54277 whole entry, chain 2 of 2): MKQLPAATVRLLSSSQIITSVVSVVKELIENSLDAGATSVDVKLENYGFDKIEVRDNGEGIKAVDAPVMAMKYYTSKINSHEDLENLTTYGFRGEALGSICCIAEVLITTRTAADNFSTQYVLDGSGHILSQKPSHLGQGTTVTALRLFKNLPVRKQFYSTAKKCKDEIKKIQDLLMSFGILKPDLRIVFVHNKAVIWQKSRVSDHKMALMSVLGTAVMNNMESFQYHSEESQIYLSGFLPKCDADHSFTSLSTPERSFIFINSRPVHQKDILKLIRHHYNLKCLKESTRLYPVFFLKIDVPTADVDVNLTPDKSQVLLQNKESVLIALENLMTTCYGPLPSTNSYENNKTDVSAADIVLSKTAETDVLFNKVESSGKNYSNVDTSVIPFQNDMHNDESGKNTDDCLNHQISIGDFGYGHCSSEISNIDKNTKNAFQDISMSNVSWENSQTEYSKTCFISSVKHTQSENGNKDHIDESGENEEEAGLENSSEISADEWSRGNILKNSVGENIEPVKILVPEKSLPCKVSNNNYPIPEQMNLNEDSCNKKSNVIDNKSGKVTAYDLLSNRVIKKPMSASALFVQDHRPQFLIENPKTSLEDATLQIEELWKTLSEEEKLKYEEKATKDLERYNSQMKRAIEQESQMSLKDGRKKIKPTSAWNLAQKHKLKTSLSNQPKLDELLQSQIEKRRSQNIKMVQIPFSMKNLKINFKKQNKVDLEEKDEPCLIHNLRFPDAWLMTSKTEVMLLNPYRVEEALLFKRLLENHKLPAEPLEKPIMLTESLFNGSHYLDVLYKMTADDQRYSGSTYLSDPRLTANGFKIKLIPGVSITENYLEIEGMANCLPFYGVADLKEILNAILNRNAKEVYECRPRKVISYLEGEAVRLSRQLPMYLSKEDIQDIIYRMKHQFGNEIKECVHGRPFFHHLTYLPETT

B1: Holliday junction (PC1253/PC1254/PC1255/PC1256) (structured_DNA)
DNA 1: TGGGTCAACGTGGGCAAAGATGTCCTAGCAATGTAATCGTCTATGACGTT
DNA 2: TGCCGAATTCTACCAGTGCCAGTGATGGACATCTTTGCCCACGTTGACCC
DNA 3: GTCGGATCCTCTAGACAGCTCCATGATCACTGGCACTGGTAGAATTCGGC
DNA 4: CAACGTCACAGACGATTACATTGCTACATGGAGCTGTCTAGAGGATCCGA
binds: all assays above
